Assay results from patent US20190015518A1, “DRUG DELIVERY COMPOSITIONS AND METHODS” (priority 2016, published 2019).

What was measured:
[1] = test system: MDA-1986 head and neck tumors; assay: Anticancer efficacy, orthotopic xenograft model of human HNSCC; type: in vivo, mouse; design: key to tumor response, Modified RECIST: PR=Partial Response (>30% reduction); PD=Progressive Disease (>30% tumor growth); SD=Stable Disease (neither PR nor PD criteria met)
Procedure: The MDA-1986 cells were prepared in PBS at a concentration of 2×10^7 cells/mL. Female NU/NU mice were anesthetized under 2% isoflurane in O2, and 50 μL of cell solution was injected into the oral sub-mucosa of the mice using a 27-ga needle. All procedures in the animal study were approved by the Institutional Animal Care and Use Committee of the University of Kansas. Tumor growth was monitored twice weekly by measurement with a digital caliper, and the tumor volume was calculated as 0.52×(width)^2×(length). […] The drugs were given weekly for 3 consecutive weeks.

[2] = Microscopic urinalysis of a healthy dog given 1.5 mg/kg on day 1 and 2.0 mg/kg on day 70, sub-mucosa; type: in vivo
Procedure: Before each dose, the dog was examined by clinical chemistry, hematology, and urinalysis. Additional examinations of clinical chemistry and hematology were performed on days 7, 14, and 42 after the first dose. Additional tests of urinalysis were performed on days 7 and 14 after the first dose. The potential drug-induced toxicities were monitored for 56 days after the second dose. Specifically, clinical chemistry and urinalysis were performed on days 7, 14, 21, and 56, and hematology was performed on days 7, 14, and 56 after the second dose to evaluate the tolerability and toxicity of the formulation.
Microscopic urinalyses were performed at pre- and post-dose for both injections. The injections were given via the sub-mucosa in the mouth.

[3] = test system: A2058 (human melanoma) cells; assay: Anti-proliferative activity (Resazurin Blue, 72 hours); type: cell-based; conditions: mean ± S.E.M., cisplatin basis
Procedure: MDA-1986 (human head and neck squamous cell carcinoma), 4T1.2-neu (murine breast cancer cells), and A2058 (human melanoma) cells were maintained in Dulbecco's Modified Eagle Medium (DMEM, Corning, Manassas, Va.) with 4.5 g/L glucose, 4.5 g/L L-glutamine, and 10% fetal bovine serum in a humidified incubator at 37° C. and 5% CO2. Cells were seeded into 96-well plates (3,000 cells/well in 90 μL media) and allowed to attach overnight. […] Resazurin Blue (Acros Organics, Geel, Belgium) in PBS was added to each well (5-μM final concentration; 10-μL addition) and incubated at 37° C. for 4 hours. Fluorescence (λex 550 nm, λem 605 nm) was quantified with a SpectraMax Gemini XS plate-reader (Molecular Devices, Sunnyvale, Calif.). The relative growth of cells incubated with each compound concentration was normalized to vehicle-treated controls (100% proliferation). Data from at least three separate experiments performed in duplicate was analyzed using non-linear regression (GraphPad Prism 5.0) to generate IC50 values.

[4] = Rehydration time of lyophilized HA-Lys-Pt; type: physicochemical
Procedure: 33HA-Lys-Pt (MW of HA: 33 kDa) from batch 33_01015 was used to evaluate the impact of trehalose as an excipient and lyoprotectant. […] The solution was freeze-dried using the following program. Samples were frozen in a −80° C. freezer for 4 hours. The vials were transferred to a freeze dryer and kept at −40° C. for 1.5 hours. The condenser point was set at −70° C. The vacuum setpoint was 100 mTorr. The parameters for primary drying were 30 hours at −35° C. and 10 mTorr. The parameters for secondary drying were 5 hours at 2° C. and 10 mTorr, followed by another 5 hours at 8° C. and 10 mTorr. […] During rehydration, 500-μL of water was added to the vial and the sample was gently shaken. The small molecular weight platinum species such as mono-aquated and di-aquated platinum were separated from the reconstituted 33HA-Lys-Pt using a Centricon centrifugal filter unit (10,000 MWCO, 4000 rpm for 10 min at 4° C.) and analyzed by an HPLC assay. The mobile phase was sodium phosphate solution (10-mM, pH 3.0) at a flow rate of 0.25 mL/min on an Alltech® 250 mm×4.6 mm M/M RP8/cation column thermostated at 25° C.
The solution was freeze-dried using the following program. Samples were frozen in a −80° C. freezer for 4 hours. The vials were transferred to a freeze dryer and kept at −40° C. for 1.5 hours. The condenser point was set at −70° C. The vacuum setpoint was 100 mTorr. The parameters for primary drying were 30 hours at −35° C. and 10 mTorr. The parameters for secondary drying were 5 hours at 2° C. and 10 mTorr, followed by another 5 hours at 8° C. and 10 mTorr. […] During rehydration, 500-μL of water was added to the vial and the sample was gently shaken.
One milliliter of samples were used for all tests. The trehalose percent weights varied from 8-20% wt. The pHs included 4.5, 5, 6, and 7. The solution was freeze-dried using the aforementioned freeze-drying program. […] During rehydration, 1-mL of water was added to the vial and the sample was gently shaken. Diaquated platinum species were separated using the aforementioned Centricon units and analyzed using the aforementioned HPLC method.
Other sample freezing methods were also tested. For examples, samples were gradually frozen in ethanol bath at −80° C. and lyophilized. In addition, samples were flash frozen using liquid nitrogen and lyophilized.
Rehydration using one half of the original sample volume was tested.
Besides trehalose, PEG 200 (2 and 5% wt) was tested as a second excipient to aid the rehydrate process.

[5] = 20 mg/kg s.c., three weekly injections

In the case of “HA-cis-[Pt(NH3)2(N^α-Acetyl-L-Lysine)] [75HA-Lys-Pt]”, the “average tumor size by the end of the sixth week” value [1, 5] is reported as “less than 200 mm^3”, the tumor progression delay [1, 5] is reported as “delayed by four weeks” and the “tumor response, Modified RECIST” value ([1]; animal #1) is reported as “PR (PR=Partial Response (>30% reduction))”. For the same substance, the “tumor response, Modified RECIST” value ([1]; animal #2) was “PR (PR=Partial Response (>30% reduction))”, the “tumor response, Modified RECIST” value ([1]; animal #3) was “PR (PR=Partial Response (>30% reduction))” and the “tumor response, Modified RECIST” value ([1]; animal #4) was “SD”. The “tumor response, Modified RECIST” value ([1]; animal #5) was “SD”, the “tumor response, Modified RECIST” value ([1]; animal #6) was “PR (PR=Partial Response (>30% reduction))” and the “tumor response, Modified RECIST” value ([1]; animal #7) was “SD”. For the same substance, the “tumor response, Modified RECIST” value ([1]; animal #8) was “PR (PR=Partial Response (>30% reduction))”, the “rate of partial response (PR)” value ([1]; three weekly injections) was 62.5% and the Cast ([2]; 2 mg/kg, 7 days after) was “Rare triple”. For the same substance, the “Trpl Ph Crystal” value ([2]; 2 mg/kg, 7 days after) was “Rare”, the “urine Red Blood Cells” value ([2]; 2 mg/kg, 14 days after) was 16-30 and the Bac-U ([2]; 2 mg/kg, 21 days after) was “Few”. The “Trpl Ph Crystal” value ([2]; 2 mg/kg, 21 days after) was “Rare triple”, the “urine Red Blood Cells” value ([2]; 2 mg/kg, 21 days after) was 1-5 and the Bac-U ([2]; 2 mg/kg, 56 days after) was “Rare”. The “Trpl Ph Crystal” value ([2]; 2 mg/kg, 56 days after) was “Few”, the “urine Red Blood Cells” value ([2]; 2 mg/kg, 56 days after) was “TNTC” and the Bac-U ([2]; […], 7 days after) was “Moderate”. For the same substance, the “Trpl Ph Crystal” value ([2]; […], 7 days after) was “Few”, the Bac-U ([2]; […], 14 days) was “Few” and the IC50 [3] was 69.8 ± 7 µM. The “Rehydration Time” value ([4]; 1.46 mg/mL, pH 6, trehalose 0% wt) was over 48 h, the “Rehydration Time” value ([4]; 1.46 mg/mL, pH 6, trehalose 5% wt) was “Ca. 12 hour” and the “Rehydration Time” value ([4]; 1.46 mg/mL, pH 6, trehalose 10% wt) was 7 h. The “Rehydration Time” value ([4]; 1.46 mg/mL, pH 6, trehalose 15% wt) was 6 h, the “Rehydration Time” value ([4]; 1.46 mg/mL, pH 7, trehalose 5% wt) was “ca. 2.5 hour” and the “Rehydration Time” value ([4]; 1.46 mg/mL, pH 7, trehalose 10% wt) was 1 h. For the same substance, the “Rehydration Time” value ([4]; 1.46 mg/mL, pH 7, trehalose 15% wt) was 1 h, the “Rehydration Time” value ([4]; 1.99 mg/mL, pH 4.5, trehalose 15% wt) was 26 h and the “Rehydration Time” value ([4]; 1.99 mg/mL, pH 4.5, trehalose 20% wt) was 26 h. The “Rehydration Time” value ([4]; 1.99 mg/mL, pH 5, trehalose 15% wt) was 26 h, the “Rehydration Time” value ([4]; 1.99 mg/mL, pH 5, trehalose 20% wt) was 26 h and the “Rehydration Time” value ([4]; 1.99 mg/mL, pH adjusted to 5 at rehydration, trehalose 10% wt) was 6 to 20 h. For the same substance, the “Rehydration Time” value ([4]; 1.99 mg/mL, pH adjusted to 6 at rehydration, trehalose 10% wt) was 6 to 20 h, the “Rehydration Time” value ([4]; 1.99 mg/mL, pH adjusted to 7 at rehydration, trehalose 10% wt) was 6 to 20 h and the “Rehydration Time” value ([4]; 3 mg/mL, pH 5, trehalose 15% wt) was over 48 h. For the same substance, the “Rehydration Time” value ([4]; batch 75_0706, 1.06 mg/mL, pH 5, trehalose 7.5% wt, rehydration using half the original volume) was 7 h, the “Rehydration Time” value ([4]; batch 75_0706, 1.06 mg/mL, pH 5, trehalose 10% wt, rehydration using half the original volume) was 7 h and the “Rehydration Time” value ([4]; batch 75_0706, 2.13 mg/mL, pH 5, trehalose 15% wt, Ethanol bath) was over 48 h. The “Rehydration Time” value ([4]; batch 75_0706, 2.13 mg/mL, pH 5, trehalose 20% wt, Ethanol bath) was over 48 h, the “Rehydration Time” value ([4]; batch 75_0706, 2.13 mg/mL, pH 5, trehalose 20% wt, PEG200 2% wt) was 48 h and the “Rehydration Time” value ([4]; batch 75_0706, 2.13 mg/mL, pH 5, trehalose 20% wt, PEG200 5% wt) was 48 h. The “Rehydration Time” value ([4]; batch 75_0706, 3.00 mg/mL, pH 5, trehalose 15% wt) was over 48 h.
